Assay results as given in publication PMC4838890, “Dynamic and flexible H3K9me3 bridging via HP1β dimerization establishes a plastic state of condensed chromatin” (Nature Communications, 2016).
Like-named read-outs stand apart in the source and are kept apart here.

Experiments:
H3K9me3 mononucleosome = test: SPR, immobilized (symmetric) H3K9me3 mononucleosome; type: binding, Xenopus laevis
Method: SPR measurements were performed on a Biacore 2000 instrument (GE Healthcare, Buckinghamshire, UK) at 298 K in 10 mM triethanolamine (pH 7.5), 150 mM NaCl, 0.1 mM EDTA, 1 mM DTT, 0.005% (v/v) Tween-20. Biotinylated ligands were immobilized on streptavidin-coated sensor chips SA (GE Healthcare, Buckinghamshire, UK). Before immobilization, sensor chips were conditioned as described by the manufacturer. To obtain low surface densities (5–24 RU), 5 nM biotinylated H3 peptide was injected at a low rate of 10 μl min^−1 using varying contact times. High surface densities (>700 RU) were prepared by injecting […] peptide (10 μl min^−1) until the SA surface was saturated. Peptide-containing chips were regenerated by applying three short pulses of 0.05% (w/v) SDS followed by an injection of 1.5 M NaCl for baseline stabilization. For binding assays, hHP1β proteins were injected at […] (serial twofold dilutions) for 2 min (30 μl/min). Dissociation was recorded for up to 5 min. A streptavidin surface without ligands served as reference. In addition, blank runs were performed for double referencing. Data evaluation was performed by steady-state analysis assuming a Langmuir 1:1 binding model using BIAevaluation 4.1 and Prism 5.04 (GraphPad, CA, USA) software. Binding to the unmodified peptides was analysed with maximum binding (RUmax) set to the corresponding values obtained with the modified peptides.
Figure S8 Hiragami-Hamada et al. […]
Supplementary Figure 8: hHP1β binds nucleosomes as dimer. […]
RU. Injection series are from 0.024 to 50 µM protein concentration. […]
(f) SPR response traces of injection of hHP1β WT into Biacore cells containing biotinylated, symmetrically modified H3K9me3-mononucleosomes (i.e. both H3-tails carry H3K9me3) immobilized […]
(also on this page, place not known: dimer . hHP1 β H3K9me3 - se nsory ( b) site -specific ( b) hHP1 β ( d) site -specific hHP1 β modifi ed H3K9me3 -mononucleosomes H3 -tails -30 -50 -8 -4 200 -10 110 -50 -10 -30 [μM] [μM] -10 190 150 -10 110 200 -10 110 μl/min μl/min μl/min -50 150 response [RU] response [RU] response [RU] response [RU] response [RU] [μM] 10 50 response [RU]40 0 0 [μM] 10 30 50 response [RU] 40 0 0 40 [μM] 10 30 50 response [RU] 140 40 0 120 0 40 response [RU] response [RU] response [RU] Kd Kd μM Kd μM 0.8 0.6 0.4 0.2 0 1 1.0 0.8 0.6 0.4 0.2 0.0 mass fraction) […]
on a sensory chip via covalently coated streptavidin. Immobilized mononucleosome was at 950 RU.
Injection series are from 0.024 to 50 µM protein concentration.
(g) Blot of signal over concentration of the titration in (f) to deduce an apparent Kd value. For reference, fitting of the data to a one and two site- specific binding model is shown.
(h) Same analysis as in (f) but with hHP1β I161A. […]

H3K9me3 peptide = molecular target: T1, H3K9me3 peptide (Homo sapiens, UniProt P68431); test: ITC, H3K9me3 peptide; type: binding; details: for Kd / N (stoichiometry of interaction): ITC; for Kd: 10 mM triethanolamine pH 7.5, 0.1 mM EDTA, 25°C, read-out: Kd (apparent dissociation constant); for N (stoichiometry of interaction): pH 7.5, 25°C
T1 construct: C-terminally biotinylated histone H3 peptides (aa 1–20)
Method: ITC measurements were performed on a iTC200 calorimeter (Microcal, Malvern, UK) at 25°C in binding buffer (10 mM triethanolamine (pH 7.5), 20 or 150 mM NaCl, 0.1 mM EDTA). Reaction heats were recorded by sequences of 37 injections of 1.8 mM hHP1β, spaced at 120 s intervals, into 250 μl of 60 μM H3 peptides, nucleosomes or oligonucleosomal arrays under constant stirring at 1,000 r.p.m. (injection #1–10: 0.5 μl each; injection #11–32: 1 μl each; injection #33–37: 2 μl each). Heats of dilution, obtained by the titration of hHP1β into buffer, were substracted from raw data before analysis. Raw data were integrated, normalized and the apparent heat change (Δq) of the reaction was plotted against the molecular ratio using the Origin software. For the determination of apparent enthalpy changes (ΔHapp), the molar association constant (KA), and the stoichiometry (n) of the interaction, non-linear least-square fitting of the Δq values was performed by the Origin software using a binding model of one set of identical binding sites.
Figure S4 Hiragami-Hamada et al. […]
Supplementary Figure 4: Quantitative analysis of interaction of hHP1β with H3K9me3-peptides and
(a) ITC measurements of H3K9me3-peptide/hHP1β WT interaction at 20 mM NaCl (left) and 150 mM
NaCl (right). Upper panels, raw data of heat release upon stepwise injection of recombinant protein into
solution of peptide; lower panels, plots of integrated heats of protein injections vs. molar ratio of hHP1β
WT per peptide calculated by MicroCal software. Injections #1-10: 0.5 µl; injections #11-32: 1 µ l; […]

[1] = molecular target: CSD-CSD interaction of hHP1β monomers; test: ITC dilution, CSD-CSD dimerization; type: binding, human; details: ITC dilution experiments, not shown
[2] = SPR titration 0.024 to 50 µM, symmetrically modified mononucleosome at 950 RU, one site-specific binding, read-out: apparent Kd (Supplementary Fig. 8g,i)
[3] = SPR, 150 mM NaCl, pH 7.5, 298 K, steady-state, WT value based on fitting to a one site-specific binding model, read-out: Kd (apparent dissociation constant)

Row | Substance | Kd (H3K9me3 mononucleosome; [2]) | Kd (H3K9me3 mononucleosome; [3]) | Kd (H3K9me3 peptide; 20 mM NaCl) | N (stoichiometry of interaction) (H3K9me3 peptide; 20 mM NaCl) | Kd (H3K9me3 peptide; 150 mM NaCl) | N (stoichiometry of interaction) (H3K9me3 peptide; 150 mM NaCl) | binding to H3K9me3 peptide relative to WT (H3K9me3 peptide; Table 1) | CSD-CSD dimerization strength [1]
1 | hHP1β I161A: CSD point mutant of hHP1β incapable of dimerization | 4300 nM | 5200 ± 600 nM | 1100 ± 500 nM | 1.0±0.1 | 3400 ± 200 nM | 0.9±0.0 | bound an H3K9me3-peptide as efficiently as hHP1β wild type | 
2 | hHP1β WT: recombinant human heterochromatin protein 1β (GenBank NM_001127228), 185 aa | 920 nM | 1000 ± 200 nM | 1400 ± 600 nM | 0.9±0.0 | 3300 ± 200 nM | 1.0±0.0 |  | nanomolar regime
